assay: yeast display, Sf9 membrane polyspecificity reagent, FACS + sequencing; frameworks hold sequencing errors
Summary of the method: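 Nanobodies came from a synthetic yeast display library in Saccharomyces cerevisiae BJ5465, induced with galactose for 36–48 hours and stained for 1 hour at 4 °C with 10% biotinylated, detergent-solubilized Sf9 membrane reagent. Cells were enriched on streptavidin microbeads and then FACS-sorted, with low and high (top ~1%) gates set on anti-HA fluorescence for expression and streptavidin fluorescence for reagent binding. Each polyreactivity label reflects the gate a clone came from. Genes were amplified by colony PCR, sequenced by MiSeq 2 × 250 and filtered by CDR length.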

Sequence | polyreactivity (PSR sort gate)
QDQLVESGGGLVQAGGSLRLRCAASGLILANYAMGCYRPAPVKERELVAAISSSGGSKYYADSVKGRFTISRDNAKHTVYFQMNSLKPEDTAVYDCAAYPLYRRRWTGDYWGQGTQVTVSS | high polyreactivity
QDQLVESGGGLVQAGGSLRLSCAASASTFPYNPMGRYRQAPRKERELVAAITATDDSTYYADSVKGRFTISRDNAKNTVYLQMNSLKPEDTAVYYCAADFGGYVFYFGYDYWGQGTQVTVSS | low polyreactivity
QDQLVESGGGLVQAGGSLRLSCAASGFIFAYNAMGWYRQGPGKESELVAGITWNGGSTYYADSVKGRFTISRDNAKNSVYLQMNRLKPEETAVYYCAARRTWGYIYRLGYGMDYWGQGTQVTVSS | high polyreactivity
QDQLVESGGGLVQAGGSLRLSCAASGFIFDLYAMGWYRQAPGKERELVAVISYDGGSTYYADSVKGRFTISRDNAKNTVYLQMNSLKPVDTAVYYCNTYAGLVSPSDLYDYWGQGTQVTVSS | low polyreactivity
QDQLVESGGGLVQAGGSLRLSCAASGFIFDQYAMGWYRQPPGKERELVAAITSGGDTNYADSVKGRFTISRDNAKNTVYLQMNSLKPEDTAVYYCNAAARGSSFDYWGQGTQVTVSS | low polyreactivity
QDQLVESGGGLVQAGGSLRLSCAASGFIFGLNAMGWYRQAPGKERELVASISRRCGSTYYAYSVKGRFTISRDNAKNTVYLQMNSLKPEDTAVYYCASDTLGGTSLGDYWGQGIQVTVSS | high polyreactivity
QDQLVESGGGLVQAGGSLRLSCAASGFIFGTYAMGWYRQAPGKEREFVAAINWGGGRTYYADSVKGRFTISRDNAKNTVYLQMNSLKPEDTAVYYCAADFGLYYPRYGYWGQGTQVTVSS | high polyreactivity
QDQLVESGGGLVQAGGSLRLSCAASGFIFNYYGMGWYRQAPGKERELVATISRGASTNYADSVKGRFTISRDNAKNTVYLQMNSLKPEDTAVYYCAKDYGDWGQGTQVTVSS | low polyreactivity
QDQLVESGGGLVQAGGSLRLSCAASGFIFSQYAMGWYRHAPGKERELVAAISTSGGSTYYADSVKGRFTISRDNAKNTVYLQMNSLKPEDTAVYYCAAARITRGRRYDYWGQGTQVTVSS | high polyreactivity
QDQLVESGGGLVQAGGSLRLSCAASGFILNWYAMGVYRQAPGKERELVAAISWTTSDTYYADSVKGRFTISRDYAKNTVYLQMNSLKPEDTAVYYCNAKFYAYYVTFVLHYDYWGHGTQVTVSS | low polyreactivity
QDQLVESGGGLVQAGGSLRLSCAASGFTFRANAMGWYRQAPGKERELVAAISSGGRTNYADSVKGRFTISRDNAKNTVYLQMNSLKTEDTAVYYCAAAPSKWYYGYGYWGQGTQVTVSS | high polyreactivity
QDQLVESGGGLVQAGGSLRLSCAASGFTFSRYAMGWYRQAPGKERELVAAINYSGGSTYYADSVKGRFTISRDNAKNTVYLQMNSLKPEDTAVYYCATGGTKPAYKGHYYWGQGTQVTVSS | low polyreactivity
QDQLVESGGGLVQAGGSLRLSCAASGFTFVINDMGWYRQAPGKERELVADITSGGDTYYADSVKGRFTISRDNAKNTDYLQMNSLKPEDTAVYYCAADIYPDWIYLLYGYWGQGTQVTVSS | low polyreactivity
QDQLVESGGGLVQAGGSLRLSCAASGFTFVINDMGWYRQAPGKEREMVADITSGGDTYYADSVKGRFTISRDNAKNTVDLQMNSLKPEDTAVYYCAADIYPDWIYLLYGYWGQGTQVSVSS | low polyreactivity
QDQLVESGGGLVQAGGSLRLSCAASGFTFYAYAMGWYRQAPGKERELVAAITGRGGSTYYADSVKGRFTISRDNAKNTVYLPLNSLKPEDTAVYDCNKVKKSDKFNTVSNDYWGQGTQVTVSS | high polyreactivity
QDQLVESGGGLVQAGGSLRLSCAASGFTISSYARGWYRQAPGKERELVAAISTRGGSTYYADSVKGRFTISRDNSKNTVYLQMNSLKPEDTAVSYCATGGRGGRRYEYWGQGTQVTVSS | low polyreactivity
QDQLVESGGGLVQAGGSLRLSCAASGGIFLYYSMGWYRQAPGKERELVAAISRGGGRTYYADSVKGRFTISRDNAKNTVYLHMNSLKPEDTAVYYCAVEYGTGYQWWEYYYWGQGTQVTVSS | high polyreactivity
QDQLVESGGGLVQAGGSLRLSCAASGGIFPVNALGWYRQAPVKERELVATITYDGGNTYYADSVKGRFTISRDNAKKTVYLQMNSLKREDTAVYYCAKDSLSFYGYISYIGYGYDYWGQGTQVTVSS | low polyreactivity
QDQLVESGGGLVQAGGSLRLSCAASGGTFLTYAMGWYRQAPGKERELVAAISSGGSTYYADSVKGRFTISRDNAKNTVYLQMNSLKPEDTAVYYCNADPYSRFWGPDYGYWGQGTQVTVSS | low polyreactivity
QDQLVESGGGLVQAGGSLRLSCAASGIFPYYAMGGYRQAPGTEREFVAAITRSGGSTYYADSVKGRFTISRDNAKKTVYLQMNSLKPEDTAVYYCNKRYGYTGFSPRYDYWGQGTQVTVSS | low polyreactivity
QDQLVESGGGLVQAGGSLRLSCAASGITFFVYDMGWYRQAPGTERELVAAITWSGDSTYYADSVKGRFTISRDNAKNTVYLQMNSLKPEDTAVYYCAAQFDVYYSRQPYDYNRSGYWGQGTQVTVSS | low polyreactivity
QDQLVESGGGLVQAGGSLRLSCAASGITVDGYAMGWYRQAPGKDRELVAAITTSGGRTYYADSVKGRFTISRDNAKNTVYLQMNSLKPEHTADYYCNAVRGGRYGLDYWGQGTQVTVSS | high polyreactivity

Sequence | polyreactivity (PSR sort gate)
QDQLVESGGGLVQAGGSLRLSCAASGLILHKYAMGWYRQAPGKERELVASINSGANTNYADSVKGRFTISRDNAKNTLYLHLNSLKPEDTAVYYCAADWQQLSYVWRSQRRYNYWGQGTQVTVSS | low polyreactivity
QDQLVESGGGLVQAGGSLRLSCAASGLTFPEYAMGWYRQAPGKERELVAAITWSGATTYYADSVKGRFTISRDNAKNTVYLQMNSLKPEDTAVYYCAAEYTVYNTALPGYYFTYYYWGQGTQVTVSS | high polyreactivity
QDQLVESGGGLVQAGGSLRLSCAASGLTFYTYAMGWYRPAPGKERELVAAIRWRGGRTYYADSVKGRFTISRDNAKNTVYLLMNSLKPEDTAVYYCAADYSTLYKYDYWGQGTQVTVSS | low polyreactivity
QDQLVESGGGLVQAGGSLRLSCAASGNTFRYYALGGYRQAPGKERELVATITSGGRTYYADSVKGRFTISRDNAKNTVYLQMNSLKPEDTAVHYGAAVGLDYFVGEYDYWGQGTQVTVSS | low polyreactivity
QDQLVESGGGLVQAGGSLRLSCAASGNTFVSNAMGWYRQAPGKERELVAAIDSGGSTNYADSVKGRFTISRDNAKYTVYLQMNSLKPEDTAVYYCNRTSVYYYYWGQGTQVTVSS | low polyreactivity
QDQLVESGGGLVQAGGSLRLSCAASGPIFRSYAMGWYRQAPGKEMELVAAISRSGGSTYYADSVKGRFSISRDNAKNSVYLHMNSLKPEDSAVYYCAADYILLGGRRKFDSWGQGTQVTVSS | low polyreactivity
QDQLVESGGGLVQAGGSLRLSCAASGRIFAGYAMGWYRQAPGKERELVATISSGGSTYYADSVKGRFTISRDNAKNTVYLQMHSLKPEDTAVYYCAAEYGTRQYSSYYKLFNYWGQGTQVTVSS | low polyreactivity
QDQLVESGGGLVQAGGSLRLSCAASGRIFGSYAMGWYRQAPGKERELVAAISIGGRTYYADSVKGRFTISRDNAKNTVYLQMNSLKPEDTAVYYCNAPAYYWRHYVYDSGYDYWGQGTQVTVSS | low polyreactivity
QDQLVESGGGLVQAGGSLRLSCAASGRIFGYYTMGWSRPAPGKERELVAGITRRGGRTYYADSVKGRFTISRDNAKNTVYLQMNSLKPEDTGVYYCAVRSGVNFYYWGQGTQVTVSS | high polyreactivity
QDQLVESGGGLVQAGGSLRLSCAASGRIFGYYVMGWYRQAPGKERELVAAISGSGGSTYYADSVKGRFTISRDNAKNTVYLQMNSLKPEDTAVYYCNKRATRSRRRGYWGQGTQVTVSS | low polyreactivity
QDQLVESGGGLVQAGGSLRLSCAASGRIFHGNAMGWYRQARGKEWELVAAISRRGGSTYSADSVKGRFTISRDNAKNTVYLQMNSLKPEDTAVYYCAAVWPYGSRGAPMDYWGQGTQVTVSS | high polyreactivity
QDQLVESGGGLVQAGGSLRLSCAASGRIFPYYAMGRYRQAPGKERELVASISGSGGRTYYADSVKGRFTISRDNAKNTVSLQMNSLKPEDTAVYYCAAYWYKVPGKYGYWGQGTQVTVSS | high polyreactivity
QDQLVESGGGLVQAGGSLRLSCAASGRIFQGYAMGWYRQAPGKERELVAAITLSGGSTYYADSVKGRFTISRDNAKNTVYLQMNSLKPEDTAVYYCNAYYPDEPSLYDYWGQGTQVTVSS | low polyreactivity
QDQLVESGGGLVQAGGSLRLSCAASGRIFRGNAMGWYRQAPGKEREMVAAISRRSGSTYYADSVKGRFTISRDNAKNTVYLQMNSLKPEDTAVYYCAATSSLGDFRYDYWGQVTQVTVSS | high polyreactivity
QDQLVESGGGLVQAGGSLRLSCAASGRIFRGYAMGWYRQAHGKERELVAVISYSGTRTYYADSVKGRFTISRDNAKNTVYIQMNSLKPEDTAVYYCNARANGFKDGYWGEGTQVTVSS | high polyreactivity
QDQLVESGGGLVQAGGSLRLSCAASGRIFRSYAMGWYRQAPGKERELVAAINTGGITYYADSVKGRFTISRDNAKNTVYLQMNSLKPEDTAVYYCNTYILSRMNYWGQCTQVTVSS | high polyreactivity
QDQLVESGGGLVQAGGSLRLSCAASGRIFSRNAMGWYRQAPGKERELVAAITWRGGSTYYADSVKGRFTISRDNAKNTVYLQMTSLKPEDTAVYYCNRDYRQYGYAYSGRYYWGLGTQVTVSS | high polyreactivity
QDQLVESGGGLVQAGGSLRLSCAASGRIFVPYSKGWYRQATGKERELVAAISLRGGTTYYSDSVKGRFTISRDNAKNTVYLQMNSLKPEDTAVYYCAARGYVSVWRPYHWFVAGDYWGQGTQVTVSS | high polyreactivity
QDQLVESGGGLVQAGGSLRLSCAASGRIFYPNAMGWYRQAPGKERELVASISRGGPTSYADSVKGRFTISRDNAKNTVYLQMNSLKPEDTAVYYCAADVAWYRYRSYYWGQGTQVTVSS | high polyreactivity
QDQLVESGGGLVQAGGSLRLSCAASGRLFDLNAMGWNRQAPGTERELVAVISWSGGITYYADSVKGRFTSSRDNAKNTVYLLMNSLKPEDTAVYYCNADTDFDPYYEFDYWGQGTQVTVSS | low polyreactivity
QDQLVESGGGLVQAGGSLRLSCAASGRTFAFKSMGWYRQAPGKERELVAAIRWSGGTTYYADSVKGRFTISRDNANNTVYLQMNSLKPEDTAVYYCATGKWVYFRYNYWGLGTQVTVSS | high polyreactivity

From the nanobody polyreactivity screen of Harvey et al. (2022)
